Assays:
CCR10+ cells = assay: Humanized NSG-GFP mice: KB004 / KB243 treatment (GFP IHC, flow cytometry); type: in vivo, human IPF cells in NSG-GFP mice; settings: 5 mg/kg i.p. twice a week for 5 weeks, day 35
Experimental: NSG-GFP mice. (A) IPF cells were injected intravenously into NSG-GFP mice, and 2 hours later groups of mice received either 5 mg/kg of KB004 (an afucosylated anti-EphA3 mAb) or KB243 (an isotype control) via intraperitoneal injection. Both groups of mice were injected twice a week with the antibodies for 5 weeks after which lungs and spleen were collected for histological and/or flow cytometric analysis. (B-C) Depicted are representative images of GFP-stained NSG mouse lung (red indicates the presence of transgenic GFP mouse cells) at day 35 after IPF lung injection in both the KB243 (B) and KB004 (C) treatment groups. (D) Flow cytometric dot plots depicting GFP^− staining for human-CD45, CCR10 and/or EpCAM proteins. Representative dot plots for (from left to right) GFP^− cells expressing CD45, CD45, and CCR10 or CCR10 alone in humanized NSG-GFP mice treated either with KB243 (top) or KB004 (bottom) antibodies are shown. (E-F) The average number of GFP^− CD45^+ CCR10^+ (E) and GFP^− Lin^− CCR10^+ (F) cells in non-humanized and humanized NSG mice treated with either KB243 or KB004. Data shown are mean±sem n=4-5/group. *p≤0.05
Six to eight-week old, female, pathogen free NOD Cg-Prkdc^SCID IL2rg^Tm1wil Szi (NSG) or NOD.Cg-Prkdc^SCID IL2rg^tm1Wil Tg(CAG-EGFP) 10sb/SzJ (NSG-GFP) were purchased from Jackson Laboratories and housed in Cedars-Sinai Medical Center's high isolation animal rooms. […] All NSG groups were monitored daily and mice were sacrificed if there is evidence for morbidity such as weight loss of more than 20%, loss of fur, paralysis and/or lack of responsiveness when handled.
Murine lung cellular suspensions were generated using a mouse lung dissociation kit, C-tubes, and a GentleMacs dissociator (Miltenyi Biotech). […] Unstained, isotype controls, fluorescent minus one controls and staining in non-humanized murine lung and spleen suspensions were utilized to gate out any non-specific antibody binding and background fluorescence. […]

[1] = tested on: murine IL-2, IL-10, IL-12-p70, and TNFα; assay: Bioplex analysis of mouse cytokines in BAL of humanized NSG mice; type: in vivo; settings: days 0 to 35 or days 35 to 63
Experimental: (A-E) Murine IL-2 (A), IL-10 (B), IL12-p70 (C), IFNγ, and TNFα in the BAL from non-humanized and humanized NSG mice treated with KB004 or KB243 from days 0 to 35, or from days 35 to 63 after IPF cell injection. Mouse cytokines were measured using Bioplex and data shown are mean±sem; n=5-10/group. ****p≤0.0001
Lungs in non-humanized and humanized NSG mice were washed using 1 ml of saline solution, and the resulting BAL was centrifuged to remove cells and the supernatants were stored at −80° C. until analysis. Mouse cytokines in the BAL were measured using predesigned Bioplex assays (Bio-Rad) as recommended by the manufacturer, […]

B1: KB004: afucosylated anti-EphA3 mAb supplied by Kalobios; targets EphA3+ cells via antibody-dependent cell-mediated cytotoxicity (ADCC) (antibody, chains of the INN, looked up, V domains shown)
VH: QVQLVQSGAEVKKPGASVKVSCKASGYTFTGYWMNWVRQAPGQGLEWMGDIYPGSGNTNYDEKFQGRVTMTRDTSISTAYMELSRLRSDDTAVYYCARGGYYEDFDSWGQGTTVTVSS
VL: DIQMTQSPSFLSASVGDRVTITCRASQGIISYLAWYQQKPEKAPKRLIYAASSLQSGVPSRFSGSGSGTEFTLTISSLQPEDFATYYCGQYANYPYTFGQGTKLEIK
**Q.** With B1 as the molecule, how does the “GFP cells in lung by IHC, KB004 compared with KB243” value (CCR10+ cells) read?
**A.** Its value is “fewer GFP cells”.

**Q.** And the “number of CD45+ CCR10+ cells compared with KB243 group” value (CCR10+ cells; flow cytometry)?
**A.** Its value is “significantly reduced”.

**Q.** What about the “number of Lin- CCR10+ cells compared with KB243 group” value (CCR10+ cells; flow cytometry) of the same molecule?
**A.** The value was “significantly reduced”.

**Q.** What about the “inflammation in the mouse lung (BAL murine cytokines)” value [1] of the same molecule?
**A.** The value was “neither KB243 or KB004 treatments in humanized NSG mice evoked inflammation”.

Reference: patent publication US11397178B2, “Method of predicting progression of idiopathic pulmonary fibrosis and monitoring of therapeutic efficacy” (Cedars-Sinai Medical Center, priority 2016, dated 2022)
